This passage reports protein production results from a protein production outcome set (Wang et al. 2014).

This data set in a line: label from the status in PepcDB records.
Regarding “MEEITDGVNNMNLATDSQKKNRIQVSNTKKPLFFYVNLAKRYMQQYNDVELSALGMAIATVVTVTEILKNNGFAVEKKIMTSTVDIKDDARGRPVQKAKIEITLVKSEKFDELMAAANEEKEDAEAQVQN”, the protein production entry was “not failed”. For “MTGFASLPVEFLITVFAMSFSIGFVAIIAGTGGGVLFTSCLWDLHQYIRTNKSNRTSFGDCWAIGPTINLIMLAPLKIATTTSAVVISIGDTAAIFPYFMSGSLLPIFAVPAVAGLMTGARFGSAVAVRVKAKYIRYTLTTILLFAGIKLIWVGLWMLEG” the value was “failed”; for “MTNSNNRQSEYPVDPLFLDRWSPRAFDGSPMPKEHLLTILDAAHWAPSASNHQPWRFVYAHKDSEDWPLFVELLMEGNQKWAKNASVLLFVISRDHTISHEGEKKPSATHSFDAGAAWFSLAMQAHLLGYHAHGMGGIFKDRIVEKLDIPDGFKVEAGVAIGTLTDKSILPDDLAEREVPSKRVPLADVAFEGRFTGKAD”, “not failed”. Take “MPQNQLVITIIDESGSKQLKFSKNLKRNLIISVVIFLLIVGLGVGFLKFLIAKMDTMTAERNAVLRDFRDLYQKNYTLTKEIKNKREELFIVGQKIRTIESLIEVKRGANGGVHLYDEVDLDNLNLAQKHLALMLIPNGMPIKTYSAIKPTKERNHPIKKIKGVESGIDFIAPLNTPVYASADGIVDFVKTNSNVGYGNLVRIEHAFGFSSIYTHLDHVNVQPKSFIQKGQLIGYSGKSGNSGGEKLHYEVRFLGKILDAQKFLAWDLDHFQSALEENKFIEWKNLFWVLEDIVQLQEHVDKDALISQ”: the protein production result was “failed”.

On to “DRTEERHAKGLRRQVDHRFDKLVGTISEGVLLMDDTGVFRDGNEAAQNILGRSLDEIIGSRFDDDIWNGLREDGSPLPNVEFPFWRAYVEREPVQEEVMGVYPPDAPPRWIRVNAQPLFRSGQEAPYAVLV”, for which the protein production result is recorded as “not failed”.

As to “MLSRLDQRSGGRSPIRAVRTRNSAMRTSRRAIVAFVLGVSALAVPALAFEGAPVNQKDATIPVVTTLPGAAGAVRSKVSPATQETSLSALQYAAEGGHPIAQWKLGRMYANGDGVAQDDVRAFEYFSRIANAHAEDSPSAPQAQIVANAFVALGRYYLSGIPNSKIKPDQDRAREMFSYAASYFGNADAQYDLARLYLKTPDASREDFRYGARWLGLAAQKGQHEAQALLGQMLFNGDRLPRQAARGLMWLTLARDSAGSEETWIKESYNRAFAKASDDDRAMCLQMLEQWVQGRRE”, the protein production entry is “failed”. For “MNKQVIVRSACLALFVGLAGGCATGPGGGSIYVPVGSDDRRSAPEPPRTNIPDEQDEQVWRKSEQPTVTEPDSPSTRAPSYSESGDQLPAAALTLVRDADQRLRQGDSAGAIARLERAQRIAPRSSEVYFKLAEAYVAGDNLGAAEQFTLKGLSLAGNDERMQRSGWLLLADIRRARGNVAGADQAEARAAAL”, the protein production entry is listed as “failed”. As for “MKCHRVNELIELLHPAWQKEPDLNLVQFLQNLAQEAGFEGQLNELTDDILIYHLKMRDSDKEQVIPGLKKDYEEDFKTALLRARGVIKDLEHHHHHH”, the protein production result is “not failed”. As for “MEMTNAQRLILSNQYKMMTMLDPANAERYRRLQTIIERGYGLQMRELDREFGELKEETCRTIIDIMEMYHALHVSWSNLQDQQSIDERRVTFLGFDAATEARYLGYVRFMVNVEGRYTHFDAGTHGFNAQTPMWEKYQRMLNVWHACPRQYHLSANEINQIINA”, the protein production result is on record as “not failed”. With “MTSFDRPFEAARPDGENPSAHETLAEGGRLRPEATYTIPARQGRAIRMAQGEALMVINRDGSQIGDFWAFVEGDCGEYLSMEHLRPTLRRVSPRPGDVLVSNRRRPILTLLEDSSPGVHDTLVASCDVHRYAQLGHEGYHDNCTDNLRMALGALGLRPTTVPCPLNLWMNTPVVEGGAMEWRPPVSRRGDHVLFRAELDVVVVISCCPMDLLPINGEEAQPRALDVRLRPRPA”, the protein production result was “not failed”. In the case of “MKFYNREKEVAELKRVQELAFTQNSRMIVVTGRRRIGKTSLIKEALKGTPTVYLFIGRKAESILVTDFVKIVRETLSIFVPEGIPTFTNLMQYLFEVGKTRAFNIVIDEFQEFYNIRPDVFSDMQNLWDEYKQETKINLVISGSVYSLMQKIFTDHNEPLFGRADNILCLRAFKIGVLKQIMEDLASGYSNDDLLALYTLTGGIPKYVELFCDNQALTIDKMYDFVFSENSLFIDEGRNLLITEFGKNYGTYFSILSEIANGHYTQGEIESALGGTAIGGYLSKLENVYNLITRERPIFAKPGTKKNVRYVIGDNFLNFWFKYIEQNRSYIELQNFDDLRQLAKADYPTYSGRVLEKYFKQKLAETGGFKEIGSWWETKSSIGKQRINSYEIDIVALKSSGKKALIAEVKRVPENNYSHTVFMEKVEHLKQKEMSKYDIETQVLGLKDMLEHHHHHH”, the protein production result is on record as “failed”. Consider “MRATEDHTIFDRGVGQRDQLQRLWTPYRMNYLAEAPVKRDPNSSASPAQPFTEIPQLSDEEGLVVARGKLVYAVLNLYPYNPGHLMVVPYRRVSELEDLTDLESAELMAFTQKAIRVIKNVSRPHGFNVGLNLGTSAGGSLAEHLHVHVVPRWGGDANFITIIGGSKLEHHHHHH”, for which the protein production result is on record as “failed”. For “MKETRGYGGDAPFCTRLNHSYTGMWAPERSAEARGNLTRPPGSGEDCGSVSVAFPITMLLTGFVGNALAMLLVSRSYRRRESKRKKSFLLCIGWLALTDLVGQLLTTPVVIVVYLSKQRWEHIDPSGRLCTFFGLTMTVFGLSSLFIASAMAVERALAIRAPHWYASHMKTRATRAVLLGVWLAVLAFALLPVLGVGQYTVQWPGTWCFISTGRGGNGTSSSHNWGNLFFASAFAFLGLLALTVTFSCNLATIKALVSRCRAKATASQSSAQWGRITTETAIQLMGIMCVLSVCWSPLLIMMLKMIFNQTSVEHCKTHTEKQKECNFFLIAVRLASLNQILDPWVYLLLRKILLRKFCQENPAVSS” the value was “failed”. As to “MRSIRLRVDWRATASLLGTVLKYLAVALLVPLTVAVIYWEDIWVFAVAIAITVTLGFTLERLDPEPDMGPAEALLLVTVSWLAVAMVGSVPYLLAGYGTASTLANPVNALFESMSGFTTTGATVMGEISTDQHSHALLLWRQLTQWLGGMGIIVLMIAILPELAVNGAQLMKTEAPGPELQKLTPRIAETARVLWLVYFGFTVLLAALLYGLHLAGFAPNMHLYNAVAHAFTTLPTGGFSPESDSIAAFSAVVQWVIIPFMVIAGTNFALFWHLLDGDIRTLLNDAEFRVYAGAIAVLSAILAALLYGGAAPAQELGGTTAGNTENALRQAAFQVGSLMNSTGFATSDFAQWGPTAQALLLFTMFVGGSAGSTGGGIKVIRWLVVMKAIRRELSVTARPEAVKPVRLGGYVVDEDVVRGIMVFTLLYLALFGAATVFFAVDSLRVGYELSVLEAMSASIATLGNIGPGFGMLGPFGSYLGFPPETKIVMVFLMWVGRLEIIPVLAVFTGAFWKR”, the protein production entry is on record as “failed”. On to “MSVSPVQPDPSVIGGVPKAPFVLKPNLARLFNDRASRFEALAQGSHLAPYLNFLAGITRIQSELVSALPPPEPVPADRVERARANAMPPIDRAAMGGSPDCREVLQQFFEKAEALEKPAAAAEALAQVRTADEEMLTWMIGNVMADDLPVESLAHHLYVAAAMQIQAARLAAGLDGSRLVPIRVGVCPACGGRPVASMVIGFHGAEGARYASCSCCATMWNEVRVKCLACGSTKGIGYQAVETGDEEATVKAEVCDTCNSWMKILYQNKNPSLDVVADDVASLGLDLLMKDTEYKRAGFDPFLMGY”, for which the protein production result is given as “not failed”.

With “MKFDNYIFDFDGTLADTKKCGEVATQSAFKACGLTEPSSKEITHYMGIPIEESFLKLADRPLDEAALAKLIDTFRHTYQSIEKDYIYEFAGITEAITSLYNQGKKLFVVSSKKSDVLERNLSAIGLNHLITEAVGSDQVSAYKPNPEGIHTIVQRYNLNSQQTVYIGDSTFDVEMAQHAGVPSAAVTWGAHDARSLLHSNPDFIINDPSEINTVL”, the protein production result is “failed”.

Take “MLDLVNQLELDSQMKQFKLVSQMTRQDVIILDEPGYLPFSQKRGALLFHLMSQLHENTSVIITTNLEFSEWGTLFTEAKMTNALLDRLIHHCHMLETGNESYRFKHRNLEHHHHHH”: the protein production result is on record as “failed”. Take “MTSAREAFDLYRAGRTAEAAALCERLVAAAPSVEAWHLLGVARLELGAAQAALTALDAGLALDPVRPGLLSARTLALTSLHRDDEAVVAARAALAVDPDNPPVFNALAVSLQRLGGFSEALAAIDHAVAAAPREAAYRAHRAALLVLLNRPAEAARDLEAVLEVNPSHPRVAGDLMWARRQTCDWREDAALDMLVKADLKLGRAGVAPFAALALFDLPVLHRRCATLSAPPSVPAPVWPVRRPGERLRVAYLSSDLHEHATARLLAGVLEAHDRSRFEIFAVSYGPETGGAMQERLRAACEHWIEARRLSDAEIALKCRQQGVDIAVDLKGYTQDGRPGILAHRAAPLQVSWLGYPGTLGAHADVVLADAVTLPPGAETNWSEAVVRLPCYQPNDGLTSVIPAPSRADMGLPERVRVFCCFNNPAKITPEVFATWMAILRAAPDSVLWLYAGAPGAADNLRGHARAAGVAPERLVFAEPAPHEAHLARHVLADLVLDTWPYGAHTTASDALRMGVPVLTLPGESFASRVGASLATAIGMTELIATSRADYVAKALAMAADGALKPRVAEAVRRSNLFDPVAFARSLETVYAGLVRR”: the protein production result is “failed”. Consider “MEIRMSKSSSKPVLVTCGLPYANGKAHIGHLRTYVPADIYARSLKKEGREVTFVCGSDTHGTPIVVNAEELGITPTELVEIYHKHFDETFKQLGIYFDAFGTTDDPENHNRTHDIVSRLIEKGYVYPKIIEIAYCPACNRFLPDRYVEGACPHCGETARGDECDQGCGKHLEPGELQNPVCTICGGPAEYRQQEHFFFKLSEFSNYLMDYLSKDLGGTTNAINYARGWVKQGLTDWCITRNLEWGVKFPGHEDLVVYVWVDAPIGYIAFTEEWAAQAGDSWEKFWKGDGEIVHFIGGDITYHHCIFWPAMLKGADYSVPTAVVASGMVKIEDRKFSKTRGYVVWVGEDYLDHGFHPDLLRYYLASYTSHTKELNFSWRVLQEKINAELVAVLGNFLYRTMLFAFKNYGEVPEGEVEPEIRKEIEKALVEVKAAMEEYEFKKAVDSAMALASFGNTYFQSHEPWKLIKEDRDACGQVVYNCLHLAKALSLIFEPVIPQTMEKAWKGLGHESDIHAALYEETLVPLKAGTKLAKPEILFTKLEDDRIGEMEEIANQRVAAANAKRNGVKGGEKEPSKSEGMGPSEASKASEKTVDVATAEEKVQVETLPVIDYEDFAKLDIRVGKVLLVEPVKKSKKLLRIEVDIGEEKPRQLVAGMASYYTPEELVGKSVIVLANLKPAKLCGVESNGMMLAADDGGAIVAALMPDKEIKSGSRIR”, for which the protein production entry is reported as “failed”.

For “MFLKLFSLFLIIPLVEIYLLIKIGGIIGAFNTVLVILITASLGAYLTKSQGFRVFHQIQDATRQGYMPGNELLHGLFVLIGGFALLTPGFLTDAIGFSMLIPQIREIYVGIAKGIIRKKIEQGNFQMRVYTDFR”, the protein production result is on record as “failed”.

In the case of “MGNCCGTAGSLAQNDNKPKKGRKKQNPFSIDYGLHHGGGDGGGRPLKLIVLNDPTGREIESKYTLGRELGRGEFGVTYLCTDKETDDVFACKSILKKKLRTAVDIEDVRREVEIMRHMPEHPNVVTLKETYEDEHAVHLVMELCEGGELFDRIVARGHYTERAAAAVTKTIMEVVQVCHKHGVMHRDLKPENFLFGNKKETAPLKAIDFGLSVFFKPGERFNEIVGSPYYMAPEVLKRNYGPEVDIWSAGVILYILLCGVPPFWAETEQGVAQAIIRSVLDFRRDPWPKVSENAKDLIRKMLDPDQKRRLTAQQVLDHPWLQNAKTAPNVSLGETVRARLKQFTVMNKLKKRALRVIAEHLSDEEASGIREGFQIMDTSQRGKINIDELKIGLQKLGHAIPQDDLQILMDAGDIDRDGYLDCDEFIAISVHLRKMGNDEHLKKAFAFFDQNNNGYIEIEELREALSDELGTSEEVVDAIIRDVDTDKDGRISYEEFVTMMKTGTDWRKASRQYSRERFNSISLKLMQDASLQSCVFDILANERAEYGDQERKTVLAFGCV”, the protein production result is reported as “failed”.
